Substrate in data set [1]: CC1CS(=O)(=O)CCN1/N=C/c1ccc([N+](=O)[O-])o1
Put plainly: purified protein. Type of data set: biochemical, Trypanosoma cruzi. The settings on record: 100 μM NADH fixed.

Substrate in data set [2]: O=C(Cn1ccnc1[N+](=O)[O-])NCc1ccccc1
Put plainly: purified protein. Type of data set: biochemical, Trypanosoma cruzi. The settings on record: 100 μM NADH fixed; benznidazole 10–100 μM.

From paper PMC3379838 come the findings set out here.

B1: TcNTR (61S, catalytic domain) (Trypanosoma cruzi strain CL Brener) (protein)
chain: LDAMKRVVHERRSCKRFDPTKSIDLDVVSDLLAMTVRAPTALNLQPWVAVVIHEEEQRETLSRAALGQPQPRDAPVTVVFAGDMEPESNAPAALEMGLESGYYHSLYGAAYLRHAYYLLHGGPCEVMSHVKAIVSAWYSESTGNAMLSVPRNKQAYAWKQVMIPATTFLYLATAAGFDTAILEGFDEAQVRRVAGLPPRFTVPVIISVGHGAKNGFHSVRSPRFPTKHLVRWGKF
The Km is the concentration of substrate that gives half-maximal velocity. For B1, the Km in “purified protein [1]” is 15.5 ± 3.5 µM; in “purified protein [2]” it was 28.0 ± 2.7 µM.
